In publication PMC7763939:

Experiments:
[1] = target: PKSIII Mo29 Red (truncated/reduced type III polyketide synthase of Naganishia uzbekistanensis strain Mo29, without the 74 aa C-terminus extension) (Naganishia uzbekistanensis strain Mo29 (UBOCC-A-208024)); experiment: SEC + other: dynamic light scattering; Sephacryl-200 gel filtration column, 50 mM Tris-HCl pH 7.5, 200 mM NaCl, size calculated with marker; DLS on a DynaPro-801; monomer to dimer
[2] = target: PKSIII Mo29 Std (type III polyketide synthase of Naganishia uzbekistanensis strain Mo29, whole protein with the C-terminus extension) (Naganishia uzbekistanensis strain Mo29 (UBOCC-A-208024)); experiment: as above

Substance	stoichiometry N [1]	stoichiometry N [2]
PKSIII Mo29 Red (truncated/reduced type III polyketide synthase of Naganishia uzbekistanensis strain Mo29, without the 74 aa C-terminus extension) (domain or fragment)	2	–
PKSIII Mo29 Std (type III polyketide synthase of Naganishia uzbekistanensis strain Mo29, whole protein with the C-terminus extension) (enzyme)	–	2
